Measurements reported in patent US20150344570A1 (published 2015).

B1: GpH7-A5/GpH7-B3 variant D270_01G/GpL16-k0 (antibody, human IgG1, kappa)
heavy 1: not shown
heavy 2: not shown
light: DIVMTQSPLSLPVTPGEPASISCQASESLVHSNRNTYLHWYLQKPGQSPQLLIYKVSNRFSGVPDRFSGSGSGTDFTLKISRVEAEDVGVYYCSQNTHVPPTFGQGTKVEIERTVAAPSVFIFPPSDEQLKSGTASVVCLLNNFYPREAKVQWKVDNALQSGNSQESVTEQDSKDSTYSLSSTLTLSKADYEKHKVYACEVTHQGLSSPVTKSFNRGEC
notes: change in the GpH7-B3 H chain only; also called He Ab
B2: GpH7-A5/GpH7-B3 variant D270_02A/GpL16-k0 (antibody, human IgG1, kappa)
heavy 1: not shown
heavy 2: not shown
light: B1 light
notes: as for B1
B3: GpH7-A5/GpH7-B3 variant D270_03V/GpL16-k0 (antibody, human IgG1, kappa)
heavy 1: not shown
heavy 2: not shown
light: B1 light
notes: as for B1
B4: GpH7-A5/GpH7-B3 variant D270_04F/GpL16-k0 (antibody, human IgG1, kappa)
heavy 1: not shown
heavy 2: not shown
light: B1 light
notes: as for B1
B5: GpH7-A5/GpH7-B3 variant D270_05P/GpL16-k0 (antibody, human IgG1, kappa)
heavy 1: not shown
heavy 2: not shown
light: B1 light
notes: as for B1
B6: GpH7-A5/GpH7-B3 variant D270_06M/GpL16-k0 (antibody, human IgG1, kappa)
heavy 1: not shown
heavy 2: not shown
light: B1 light
notes: as for B1
B7: GpH7-A5/GpH7-B3 variant D270_07I/GpL16-k0 (antibody, human IgG1, kappa)
heavy 1: not shown
heavy 2: not shown
light: B1 light
notes: as for B1
B8: GpH7-A5/GpH7-B3 variant D270_08L/GpL16-k0 (antibody, human IgG1, kappa)
heavy 1: not shown
heavy 2: not shown
light: B1 light
notes: as for B1
B9: GpH7-A5/GpH7-B3 variant D270_11K/GpL16-k0 (antibody, human IgG1, kappa)
heavy 1: not shown
heavy 2: not shown
light: B1 light
notes: as for B1
B10: GpH7-A5/GpH7-B3 variant D270_12R/GpL16-k0 (antibody, human IgG1, kappa)
heavy 1: not shown
heavy 2: not shown
light: B1 light
notes: as for B1
B11: GpH7-A5/GpH7-B3 variant D270_13S/GpL16-k0 (antibody, human IgG1, kappa)
heavy 1: not shown
heavy 2: not shown
light: B1 light
notes: as for B1
B12: GpH7-A5/GpH7-B3 variant D270_14T/GpL16-k0 (antibody, human IgG1, kappa)
heavy 1: not shown
heavy 2: not shown
light: B1 light
notes: as for B1
B13: GpH7-A5/GpH7-B3 variant D270_15Y/GpL16-k0 (antibody, human IgG1, kappa)
heavy 1: not shown
heavy 2: not shown
light: B1 light
notes: as for B1
B14: GpH7-A5/GpH7-B3 variant D270_16H/GpL16-k0 (antibody, human IgG1, kappa)
heavy 1: not shown
heavy 2: not shown
light: B1 light
notes: as for B1
B15: GpH7-A5/GpH7-B3 variant D270_18N/GpL16-k0 (antibody, human IgG1, kappa)
heavy 1: not shown
heavy 2: not shown
light: B1 light
notes: as for B1
B16: GpH7-A5/GpH7-B3 variant D270_19Q/GpL16-k0 (antibody, human IgG1, kappa)
heavy 1: not shown
heavy 2: not shown
light: B1 light
notes: as for B1

What follows are binders tested against T1, FcγRIa extracellular domain with C-terminal His tag (human, UniProt P12314 16-292) (assay: SPR, binding relative to GpH7-A5/GpH7-B3/GpL16-k0 = 100).
T1 construct: extracellular domain; soluble analyte in Biacore; also called FcgRI; not shown: His tag at the C terminus
T1 sequence (P12314 16-292): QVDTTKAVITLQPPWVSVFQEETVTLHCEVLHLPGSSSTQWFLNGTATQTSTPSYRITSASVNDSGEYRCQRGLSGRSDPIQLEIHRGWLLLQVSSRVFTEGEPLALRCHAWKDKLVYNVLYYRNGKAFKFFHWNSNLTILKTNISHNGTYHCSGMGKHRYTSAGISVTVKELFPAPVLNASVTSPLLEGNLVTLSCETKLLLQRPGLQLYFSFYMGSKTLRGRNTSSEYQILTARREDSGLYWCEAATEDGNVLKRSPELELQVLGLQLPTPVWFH
For B1, the He/Con_1a was 76.3 % of control. For B2, the He/Con_1a was 71.5 % of control. B3 was tested, and the He/Con_1a was 77.9 % of control. B4 was tested, and the He/Con_1a was 78.1 % of control. B5 was tested, and the He/Con_1a was 67.1 % of control. For B6, the He/Con_1a was 78.8 % of control. For B7, the He/Con_1a was 74.6 % of control. In the case of B8, the He/Con_1a is reported as 73.5 % of control. For B9, the He/Con_1a was 58.4 % of control. For B10, the He/Con_1a was 66.3 % of control. For B11, the He/Con_1a was 75.3 % of control. For B12, the He/Con_1a was 70.6 % of control. For B13, the He/Con_1a was 68.5 % of control. B14 was tested, and the He/Con_1a was 66 % of control. With B15 the He/Con_1a was 67.8 % of control. In the case of B16, the He/Con_1a is reported as 78.2 % of control.

Each binder was assayed against T2, FcγRIIb extracellular domain with C-terminal His tag (human, UniProt P31994 43-217) in the same assay as above.
T2 construct: extracellular domain; soluble analyte in Biacore; also called FcgRIIb; not shown: His tag at the C terminus
T2 sequence (looked up): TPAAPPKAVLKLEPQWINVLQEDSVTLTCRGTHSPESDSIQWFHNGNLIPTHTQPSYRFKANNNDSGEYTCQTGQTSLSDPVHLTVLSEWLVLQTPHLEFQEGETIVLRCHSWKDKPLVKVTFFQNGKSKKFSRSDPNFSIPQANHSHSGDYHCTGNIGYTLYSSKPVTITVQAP
In the case of B1, the He/Con_2b is reported as 30.5 % of control. In the case of B2, the He/Con_2b is reported as 48.3 % of control. For B3, the He/Con_2b was 39.5 % of control. For B4, the He/Con_2b was 53.1 % of control. B5 was tested, and the He/Con_2b was 13.9 % of control. In the case of B6, the He/Con_2b is reported as 48.2 % of control. With B7 the He/Con_2b was 41.5 % of control. B8 was tested, and the He/Con_2b was 53.6 % of control. With B9 the He/Con_2b was 20.3 % of control. B10 was tested, and the He/Con_2b was 18.3 % of control. In the case of B11, the He/Con_2b is reported as 44.2 % of control. For B12, the He/Con_2b was 57.8 % of control. With B13 the He/Con_2b was 44.9 % of control. In the case of B14, the He/Con_2b is reported as 47.2 % of control. For B15, the He/Con_2b was 40.3 % of control. B16 was tested, and the He/Con_2b was 48 % of control.

What follows are binders tested against T1, FcγRIa extracellular domain with … (assay: SPR; He/Con_1a divided by He/Con_2b (FcγRIa against FcγRIIb)).
Protocol: The heterodimerized antibodies He Abs in which one of the H chains was introduced with an alteration were assayed for their binding activities to each activating FcγR and inhibitory FcγR according to the method described in Example 4. […] The activating FcγRs in FIGS. 26, 27, 28, and 29 are FcγRIa, FcγRIIa (R), FcγRIIa (H), and FcγRIIIa, respectively.
Analysis of interaction between objective antibody and the FcγR was carried out using Biacore T100 (GE Healthcare). HBS-EP+ (GE Healthcare) was used as the running buffer, and the measurement temperature was set to 25° C. Chips produced by immobilizing the antigen peptide by the amine coupling method to a Series S Sencor Chip CM5 (GE Healthcare), or alternatively, chips produced by allowing preliminarily biotinylated antigen peptides to interact with and immobilize onto a Series S Sensor Chip SA (certified) (GE Healthcare) were used. Antibodies of interest were captured onto an antigen peptide-immobilized chip, and allowed to interact to each FcγR diluted with running buffer. To regenerate and repeatedly use the chip, the antibodies captured on the chip were washed off by reacting 10 mM glycine-HCl, pH 1.5.
With B1 the “He_1a/2b (Ia/IIb)” value was 2.5 ratio. For B2, the “He_1a/2b (Ia/IIb)” value was 1.48 ratio. B3 was tested, and the “He_1a/2b (Ia/IIb)” value was 1.97 ratio. B4 was tested, and the “He_1a/2b (Ia/IIb)” value was 1.47 ratio. For B5, the “He_1a/2b (Ia/IIb)” value was 4.81 ratio. For B6, the “He_1a/2b (Ia/IIb)” value was 1.64 ratio. In the case of B7, the “He_1a/2b (Ia/IIb)” value is reported as 1.8 ratio. For B8, the “He_1a/2b (Ia/IIb)” value was 1.37 ratio. With B9 the “He_1a/2b (Ia/IIb)” value was 2.88 ratio. For B10, the “He_1a/2b (Ia/IIb)” value was 3.63 ratio. B11 was tested, and the “He_1a/2b (Ia/IIb)” value was 1.7 ratio. B12 was tested, and the “He_1a/2b (Ia/IIb)” value was 1.22 ratio. With B13 the “He_1a/2b (Ia/IIb)” value was 1.53 ratio. B14 was tested, and the “He_1a/2b (Ia/IIb)” value was 1.4 ratio. With B15 the “He_1a/2b (Ia/IIb)” value was 1.68 ratio. B16 was tested, and the “He_1a/2b (Ia/IIb)” value was 1.63 ratio.
